# Earlier results as cited in PMC7717565, “Structure of the Lifeact–F-actin complex” (PLoS Biology, 2020).
# Target: F-actin (Oryctolagus cuniculus) (UniProt P68135)
substance,measurement,value
Lifeact Lifeact (from UniProt Q08641),Kd,13.2 µM
